B5: human p30 (RAPL), wild type (other)
chain: MTVDSSMSSGYCSLDEELEDCFFTAKTTFFRNAQSKHLSKNVCKPVEETQRPPTLQEIKQKIDSYNTREKNCLGMKLSEDGTYTGFIKVHLKLRRPVTVPAGIRPQSIYDAIKEVNLAATTDKRTSFYLPLDAIKQLHISSTTTVSEVIQGLLKKFMVVDNPQKFALFKRIHKDGQVLFQKLSIADRPLYLRLLAGPDTEVLSFVLKENETGEVEWDAFSIPELQNFLTILEKEEQDKIQQVQKKYDKFRQKLEEALRESQGKPG
notes: also called hp30; wild type p30

For experiment [1], the target named is B5. Kind of experiment: association of Rap1V12 point mutants with p30, assay not detailed.
Experiment [2] has as its target Rap1 (of the BAF cells, in chemokine-stimulated migration). Kind of experiment: cell-based or functional assay.
The target of experiment [3] is T1, Rap1V12 (Rap1-activated mutant) (human, UniProt P62834 1-184, limits assumed).
T1 construct: also called active Rap1V12
T1 chain: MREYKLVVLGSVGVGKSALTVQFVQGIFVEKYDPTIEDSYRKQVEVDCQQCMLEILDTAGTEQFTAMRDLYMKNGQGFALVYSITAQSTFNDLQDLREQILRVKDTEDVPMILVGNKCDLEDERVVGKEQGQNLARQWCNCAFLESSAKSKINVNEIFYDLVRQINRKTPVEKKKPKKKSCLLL
The experiment in a line: yeast two-hybrid screen, Rap1V12 as bait. From the text:
To identify a molecule that associates with Rap1, the human leukocyte cDNA library was screened by a yeast two-hybrid method using a Rap1-activated mutant Rap1V12 as bait. As a result, a molecule that encodes a protein of a molecular weight of 30,000 having a Ras/Rap binding domain (RBD) was isolated and termed as p30 (FIG. 1). […] It was found from an analysis of the human genome database that p30 is an alternative splicing product of Norel. Mouse p30 cDNA was also isolated by a RT-PCR method.

Another experiment deals with T2, GTP-Rap1 (human, UniProt P62833 1-184 (bovine entry), limits assumed).
T2 sequence: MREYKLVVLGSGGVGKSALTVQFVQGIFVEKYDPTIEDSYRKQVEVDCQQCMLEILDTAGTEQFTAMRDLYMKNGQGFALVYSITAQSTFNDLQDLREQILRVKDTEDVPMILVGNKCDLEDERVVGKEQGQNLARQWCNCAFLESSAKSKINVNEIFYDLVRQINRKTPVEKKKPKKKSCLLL
Kind of experiment: binding to GTP-Rap1, assay not detailed.

The values below come from patent US20070031415A1 (published 2007).

B1: Rap1V12 E37G (enzyme)
chain: MREYKLVVLGSVGVGKSALTVQFVQGIFVEKYDPTIGDSYRKQVEVDCQQCMLEILDTAGTEQFTAMRDLYMKNGQGFALVYSITAQSTFNDLQDLREQILRVKDTEDVPMILVGNKCDLEDERVVGKEQGQNLARQWCNCAFLESSAKSKINVNEIFYDLVRQINRKTPVEKKKPKKKSCLLL
notes: Point mutation in the effector region of the active Rap1V12
As to B1, the binding result in experiment [1] is “binds”.

B2: Rap1V12 Y40C (enzyme)
chain: MREYKLVVLGSVGVGKSALTVQFVQGIFVEKYDPTIEDSCRKQVEVDCQQCMLEILDTAGTEQFTAMRDLYMKNGQGFALVYSITAQSTFNDLQDLREQILRVKDTEDVPMILVGNKCDLEDERVVGKEQGQNLARQWCNCAFLESSAKSKINVNEIFYDLVRQINRKTPVEKKKPKKKSCLLL
notes: as for B1
For the molecule B2, the binding result in experiment [1] is “no binding”.

B3: Rap1V12 D38E (enzyme)
chain: MREYKLVVLGSVGVGKSALTVQFVQGIFVEKYDPTIEESYRKQVEVDCQQCMLEILDTAGTEQFTAMRDLYMKNGQGFALVYSITAQSTFNDLQDLREQILRVKDTEDVPMILVGNKCDLEDERVVGKEQGQNLARQWCNCAFLESSAKSKINVNEIFYDLVRQINRKTPVEKKKPKKKSCLLL
notes: as for B1
As for B3, the binding result in experiment [1] is reported as “no binding”.

B4: Rap1V12 T35E (enzyme)
chain: MREYKLVVLGSVGVGKSALTVQFVQGIFVEKYDPEIEDSYRKQVEVDCQQCMLEILDTAGTEQFTAMRDLYMKNGQGFALVYSITAQSTFNDLQDLREQILRVKDTEDVPMILVGNKCDLEDERVVGKEQGQNLARQWCNCAFLESSAKSKINVNEIFYDLVRQINRKTPVEKKKPKKKSCLLL
notes: as for B1
For the molecule B4, the binding result in experiment [1] is “no binding”. For B5, the “cell migration on ICAM-1 in the presence of SDF-1 (CXCL12) (20 nM)” value in experiment [2] was around 2 fold. In addition, the binding result in experiment [3] was “binds”.

B6: p30RBDm (RBD-domain mutant of p30) (other)
chain: MTVDSSMSSGYCSLDEELEDCFFTAKTTFFRNAQSKHLSKNVCKPVEETQRPPTLQEIKQKIDSYNTREKNCLGMKLSEDGTYTGFIKVHLKLRRPVTVPAGIRPQSIYDAIKEVNLAATTDAATSFYLPLDAIAQLHISSTTTVSEVIQGLLAAFMVVAAPQKFALFKRIHKDGQVLFQKLSIADRPLYLRLLAGPDTEVLSFVLKENETGEVEWDAFSIPELQNFLTILEKEEQDKIQQVQKKYDKFRQKLEEALRESQGKPG
For the molecule B6, the binding result with GTP-Rap1 was “no binding”.
